Test [1] has as its target intercellular adhesion molecule 1 (ICAM-1), the RGD-independent fibrinogen receptor, native, on the surface of cells (HUVEC, JY lymphocytes) (human) (UniProt P05362). Nature of the test: 125I-D30 at 10 µg/ml on HUVEC monolayers.
In test [2] the target is recombinant ICAM-1 on the surface of transfected fibroblast-like (COS) cells of Example 4 (human) (UniProt P05362). The test can be described thus: 125I-D30 on ICAM-1 transfected cells, with CaCl2, no inhibitor.
Test [3] has the same target. Nature of the test: 125I-D30 on ICAM-1 transfected cells, with MnCl2, no inhibitor.
Test [4] concerns the target T1, intercellular adhesion molecule 1 (ICAM-1), the RGD-independent fibrinogen receptor, native, on the surface … (human, UniProt P05362 28-532).
T1 construct: whole, on cells; assays on HUVEC monolayers are written against this molecule; also called ECR; endothelial cell receptor
The test can be described thus: adhesion of 51Cr-labelled ICAM-1+ JY lymphocytes to peptide-coated wells.

The target of test [5] is T1, intercellular adhesion molecule 1 …. Nature of the test: adhesion of 51Cr-labelled ICAM-1+ JY lymphocytes to wells coated with 1-100 µg/ml peptide. On the procedure: Serum-free suspensions of JY lymphocytes were labeled with 0.5 mCi ⁵¹Cr (Na₂CrO₄, specific activity 487.4 mCi/mg, E. I., DuPont de Nemours, Wilmington, Del.) for 2 h at 37° C., with a final incorporation of 0.2-4 cpm/cell (Languino, et al., supra). Aliquots of ⁵¹Cr-labeled JY lymphocytes at 1×10⁶/ml were added to peptide-coated wells for 45 min at 37° C., washed, solubilized in 20% SDS, and radioactivity associated under the various conditions was determined in a scintillation beta-counter. The number of attached cells was quantitated by dividing the cpm harvested by the cpm/cell. Data are the mean ± S.D. of two independent experiments.
The specific binding of radiolabelled ICAM-1⁺ JY lymphocytes to increasing concentrations of γ3 was measured to characterize the ICAM-1 binding site. The number of attached cells is plotted on the Y-axis against peptide concentration (μg/ml) plotted on the X-axis.

Chain of recombinant ICAM-1 on the surface of transfected fibroblast-like (COS) cells of Example 4 (human) (P05362 28-532): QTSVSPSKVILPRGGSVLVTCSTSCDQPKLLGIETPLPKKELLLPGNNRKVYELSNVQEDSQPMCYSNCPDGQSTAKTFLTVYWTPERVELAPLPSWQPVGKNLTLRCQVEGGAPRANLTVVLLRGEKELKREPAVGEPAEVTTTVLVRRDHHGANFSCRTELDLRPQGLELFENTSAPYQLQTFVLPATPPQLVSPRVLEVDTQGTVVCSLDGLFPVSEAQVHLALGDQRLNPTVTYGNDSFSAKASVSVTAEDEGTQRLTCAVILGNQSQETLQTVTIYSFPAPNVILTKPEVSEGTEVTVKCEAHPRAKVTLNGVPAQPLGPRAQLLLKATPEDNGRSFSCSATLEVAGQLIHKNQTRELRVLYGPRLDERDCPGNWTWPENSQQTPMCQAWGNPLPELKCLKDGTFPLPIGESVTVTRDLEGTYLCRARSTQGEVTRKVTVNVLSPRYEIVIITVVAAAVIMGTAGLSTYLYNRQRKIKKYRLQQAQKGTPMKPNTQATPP
T1 sequence (P05362 28-532): as above
Chain of intercellular adhesion molecule 1 (ICAM-1), the RGD-independent fibrinogen receptor, native, on the surface of cells (HUVEC, JY lymphocytes) (human) (P05362 28-532): as above

Take “D30 fragment of fibrinogen (30 kD plasmin digestion product of fragment D) (from UniProt P02671 155-225; P02675 164-250)”: the cpm bound in test [1] was determined as 60000 cpm; in test [2], 3000 cpm; in test [3], 7500 cpm.

B1: polypeptide L10, fibrinogen γ chain residues 402-411 (peptide)
peptide: LGGAKQAGDV
notes: also called control peptide L10; irrelevant polypeptide L10
As to B1, in test [4], the binding result is on record as “no binding (tested: 1-100 µg/ml coating)”.

B2: polypeptide γ3, fibrinogen γ chain residues 117-133 (peptide)
peptide: NNQKIVNLKEKVAQLEA
notes: Coated on plates in the JY adhesion assays; also called γ3 polypeptide; unlabeled γ3 peptide
B2: the binding result in test [5] is on record as “binds”.

These data come from patent publication US20020131970A1 (Scripps Research, published 2002).
